{
  "source": "paper PMC4881466",
  "target": "Lys69 (UniProt position 69, KALAVKVFKMT)",
  "experiment": "UV-vis",
  "details": "not stated (100 mM buffers); 100 mM sodium phosphate/citrate (pH 4-6), sodium phosphate (pH 6.2-8.6), sodium carbonate (pH > 8.6); ferrous-deoxy, no exogenous ligand",
  "data": [
    {"substance": "Non-symbiotic hemoglobin 2 (AHb2) H66L mutant (Arabidopsis thaliana; H66L)", "values": [
      {"measurement": "pKa", "value": "10 ± 0.2"}
    ]}
  ]
}
